# Results: US20090022663A1 (published 2009)
# Residue numbers refer to the chain shown, from its start.
# B1: H16-1.80 (antibody, V domains shown)
# VH: QVQLQESGPGLVKPSETLSLTCTVSGGSISSYYWSWIRQPPGKGLEWIGYVYFSGSTNYNPSLKSRVTISVDTSKNQFSLKLSSVTAADTAVYYCARATRDYYYYGMDVWGQGTTVTVSS
# VL: DIQMTQSPSSLSASVGDRVTITCRTSHDISNYLNWYQQKPGKAPKLLIYAASSLQSGVPSRFSGSRSGTDFTLTISSLQPEDFATYYCQQTYSTLFTFGPGTKVDIKR
# notes: also called Ha16-1.80; HA16-1.80
# B2: H16-1.61.1 (antibody, V domains shown)
# VH: EVQLVESGGGVVQPGRSLRLSCAASGFTFSSYGMHWVRQAPGKGLEWVAVIWYDGSNKYYADSVKGRFTISRDNSKNTLYLQMNSLRAEDTAVYYCARSRITIFGVVHYGMDVWGQGTTVTVSS
# VL: DTQLTQSPSSLSASVGDRVTITCRASQSISSYLNWYQLKPGKAPKLLIYAASSLESGVPSRFSGSESGTDFTLTISSLQPEDFATYYCQQSYNSPITFGPGTKVDIKR
# B3: H16-1.67 (antibody, V domains shown)
# VH: VESGPGLVKPSQTLSLTCTVSGGSINSFGYYWSWIRQYPGKGLEWIGFLYFTGSTYYNPSLKSRVTISVDTSKSQFSLKLSSVTAADTAVYYCARAGTMVRGAHYYGMDVWGQGTTVTVSS
# VL: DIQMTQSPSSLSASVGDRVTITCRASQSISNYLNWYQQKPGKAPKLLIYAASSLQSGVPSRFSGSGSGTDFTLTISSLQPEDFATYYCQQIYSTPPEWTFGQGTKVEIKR
# B4: Ha16-1(3,5)27.1 (antibody, V domains shown)
# VH: LVESGAEVKKPGESLKISCKGSGYRFTSYWIGWVRQMPGKGLEWMGIIYPGDSDTRYSPSFQGQVTISADKSISTAYLQWSSLKASDTAMYYCARKDYYYYSMDVWGQGTTVTVSS
# VL: GQSALTQPASVSGSPGQSITISCTGTSSDVGGYNYVSWYQQHPGQAPKLLIYGVNIRPSGVSTRFSGSKSGNTASLTISGLQAEDEADYYCSSYTRSSILVVFAGGTKLTVLG
# notes: VH entry holds part of the leader; both hold a portion of the constant region
# B5: H16-9.65 (antibody, V domains shown)
# VH: QVQLVESGGGVVQPGRSLRLSCAASGFTFSSYGMHWVRQAPGKGLEWVATIWFDGSNGYYADSVKGRFTISRDNSKNTLYLQMNSLRAEDTAVYYCARDSSGSYDHFDYWGQGTLVTVSS
# VL: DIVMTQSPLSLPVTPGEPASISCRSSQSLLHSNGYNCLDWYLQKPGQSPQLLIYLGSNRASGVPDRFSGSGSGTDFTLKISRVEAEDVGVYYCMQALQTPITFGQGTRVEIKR
# notes: Fully human XenoMouse MAb; Entries hold the leader (or part of it) and a portion of the constant region
# B6: Ha16-1(1)11 (antibody, V domains shown)
# VH: GPGLVKPSETLSLTCTVSGGSISSYYWSWIRQPPGKGLEWIGYIYYSGSTNYNPSLKSRVTISVDTSKNQFSLKLSSVTAADTAVYYCARAVSYYYYGMDVWGQGTTVTVSS
# VL: B1 VL with S26I, H27Q, D28N, S30N, N31S, K39R, A51T, R66G
# notes: also called ATCC PTA-7450
# B7: H16-9.69 (antibody, V domains shown)
# VH: WGLSEVSCKASGYTFTSYDIHWVRQATGQGLEWMGWMNPNSGNTVYAQKFQGRVTMTRNTSISTAYMELSSLRSEDTAVYYCARTVLLWPFDYWGQGTLVTVSS
# VL: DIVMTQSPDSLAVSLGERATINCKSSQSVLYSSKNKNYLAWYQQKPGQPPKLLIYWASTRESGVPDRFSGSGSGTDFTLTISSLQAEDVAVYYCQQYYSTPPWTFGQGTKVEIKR
# B8: H16-7.213 (antibody, V domains shown)
# VH: WGLSEVSCKASGYTFTGYYMHWVRQAPGQGLEWMGWINPNSGGTNYAQKFQGRVTMTRDTSISTAYMELSRLRSDDTAVYYCARELRYFGWLLSSLDYWGQGTLVTVSS
# VL: DIQMTQSPSSLSASVGDRVTITCRASQSISSYLNWFQQKPGKAPKLLIYAASSLQSGVPSRFSGSESGTDFTLTISSLQPEDFATYSCQQSYSFPLTFGGGTKVEIKR
# B9: Ha16-1(1)23 (antibody, V domains shown)
# VH: VESGGGVVQPGRSLRLSCAASGFTFRSYGMHWVRQAPGKGLEWVAVIWSDGSNKYYADSVKGRFTISRDNSKNTLYLQMNSLRAEDTAVYYCAREGYYGSGSYYYYYGMDVWGQGTTVTVSS
# VL: QAGLTQPPSVSKGLRQTATLTCTGNSNNVGTQGAAWLQQHQGHPPKLLSYRNNNRPSGISERLSASTSGNTASLTITGLQPEDEADYYCSAWDSSLSAVVFGGGTKLTVLG
# B10: H16-9.10 (antibody, V domains shown)
# VH: LLESGPGLVKPSQTLSLTCAISGDSVSSNSAAWNWIRQSPSRGLEWLGRTYYRSKWYNAYAVSVKSRMTINPDTSKNQFSLQLNSVTPEDTAVYYCAREAGGWFDPWGQGTLVTVSS
# VL: DIQMTQSPSSVSASVGDRVTITCRASQGIRSWLAWYQQKPGKAPKLLIYAASSLQSGVPSRFSGSGSGTDFTLTISSLQPEDFATYYCQQANSFPPTFGGGTKVEIKR
# notes: also called Ha16-9.10
# B11: H16-9.33 (antibody, V domains shown)
# VH: EVQLLESGPGLVKPSQTLSLTCAISGDSVSSNSAAWNWIRQSPSRGLEWLGRTYYRSKYYNAYPVSVKSRITINPDTSKNQFSLQLNSVTPEDTAVYYCAREAGGWFDPWGQGTLVTVSS
# VL: B10 VL with S26N
# B12: Ha16-1(3,5)36 (antibody, V domains shown)
# VH: EVQLVESGPGLVKPSETLSLTCTVSGGSISSSSYYWGWIRQPPGKGLEWIGSMYYSGSTYHNPSLKSRVIISVDTSKNQFSLKLSSVTAADTAVYYCARHYITVAGIFDYWGQGTLVTVSS
# VL: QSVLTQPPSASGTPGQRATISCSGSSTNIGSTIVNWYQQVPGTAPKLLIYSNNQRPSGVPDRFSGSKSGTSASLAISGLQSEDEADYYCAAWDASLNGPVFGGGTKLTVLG
# B13: Ha16-1(3,5)18 (antibody, IgG1, V domains shown)
# VH: GPGLVKPSETLSLTCTVPGGSIRSYFWSWIRQPAGKGLEWIGRFYFSGSTNYNPSLKSRVTMSVDTSKNQFSLKLSSVTAADTAVYYCARDYGDHYYYYGMDVWGQGTTVTVSS
# VL: VLTQPPSVSAAPGQKVTISCSGSSSNIGNNYVSWYQQFPGTAPKFLIYDNNKRSSGIPDRFSGSKSGTSATLGITGLQTGDEADYYCGTWDSSLSAVIFGGGTKLTVL
# notes: The limits of VH (1-114) and VL (1-108) are stated in CLM-00001; the entries also hold a portion of the constant region; also called Ha16-1(3, 5)18.1; ATCC PTA-7452
# B14: H16-9.44 (antibody, V domains shown)
# VH: LSLTCTVSGGSISSYYWSWIRQSAGKGLEWIGRIYTGVSTNYNPSLKSRVTMSVDTSKNQFSLKLSSVTAADTAVYYCARDYYDSSGYYPFDYWGQGTLVTVSS
# VL: DIQMTQSPSSLSASVGDRVTISCRASQGISNYLAWFQQKPGKAPKSLIYAASSLENGVPSKFSGSGSGTDFTLTISSLQPEDFATYYCQQYNSSPFTFGPGTKVDIRR
# notes: also called Ha16-9.44
# B15: H16-1.68 (antibody, V domains shown)
# VH: B2 VH with Q3H, S30R, T91M, V93M
# VL: TQLTQSPSSLSASVGDRVTITCRASQNINSYLNWYQQKPGKAPKLLIYAASSLQSGVPSRFSGSGSGTDFTLTISSLQPEDFTTYYCQQSYSSAPTFGGGTKLEIKR
# B16: Ha16-1(3,5)56 (antibody, V domains shown)
# VH: RCRLVESGAEVKKPGESLKISCKGSGYRFTSYWIGWVRQMPGKGLEWMGIIYPGDSDTRYSPSFQGQVTISADKSISTAYLQWRSLKASDTAMYYCARKDYYYYVMDVWGQGTTVTVSS
# VL: DTISCTGTSSDVGNYNYVSWYQQHPGKAPKLMIYAVNNRPSGVSNRFSGSKSGNTASLTISGLQAEDEADYYCSSYTSSRNLVVFGGGTKLTVLG
# B17: Ha16-1(3,5)42 (antibody, V domains shown)
# VH: B16 VH with R1E, C2V, R3Q, E6Q, R84S, V105S
# VL: QSALTQPASVSGSPGQSITISCTGTSSDVGRFNYVSWYQQRPGKAPKLMIYAVNIRPSGVSNRFSGSKSGNTASLTISGLQAEDEAGYYCSSYTSSSTLLVFGGGTKLTVLG
# notes: Entries hold the leader (or part of it) and a portion of the constant region
# B18: H16-1(3,5)5 (antibody, V domains shown)
# VH: B16 VH with R1E, C2V, R3Q, E6Q, R84S, V105T
# VL: B17 VL with R31G, F32Y, R41H, N54S, I55N, G87D, S95I, S97R, T98I, L100V
# notes: Entries hold the leader (or part of it) and a portion of the constant region; also called Ha16-1(3,5)5
# B19: Ha16-1(3,5)19 (antibody, V domains shown)
# VH: B16 VH with R1E, C2V, R3Q, E6Q, R84S, V105A
# VL: QSALTQPASVSGSPGQSITISCTGTSSDVGRYNYVSWYQQHPGQAPKLMIYGISIRPSGVSPRFSGSKSGNTASLTISGLQAEDEADYYCSSHTSNSTLVVFAGGTKLTVLG
# notes: Entries hold part of the leader and a portion of the constant region
# B20: H16-7.8 (antibody, V domains shown)
# VH: QVQLQESGPGLVKPSQTLSLTCTVSGGSISSGGYYWSWIRQHPGKGLEWIGIIYYSGSTYYNPSLKSRVTISVDTSKNQFSLKLNSVTAADTAVFYCARVAIVTTIPGGMDVWGQGTTVTVSS
# VL: EIVLTQSPDFQSVTPKEKVTITCRASQSIGISLHWYQQKPDQSPKLLIKYASQSFSGVPSRFSGSGSGTDFTLTINSLEAEDAATYYCHQSRSFPWTFGQGTKVEIKR
# notes: Entries hold the leader and a portion of the constant region
# B21: H16-1.93 (antibody, V domains shown)
# VH: QVQLVQSGAEVKKPGASVKVSCKASGYTFTSYGISWVRQAPGQGLEWMGWISAYNGNTYYAQKLQARVTMTTDTSTSTAYMELRSLRSDDTAVYYCARDGYSSSWSLLHYYGMDVWGQGTTVTVSS
# VL: DIQMTQSPSSLSASVGDRITITWRSSQGIYNSLAWYQQKPGKVPKLLIYAASTLHSGVPSRFSGSGSGTDFTLTISSLQPEDVATYYCQKYNSAPFTFGPGTKVDIKR
# notes: Entries hold the leader (or part of it) and a portion of the constant region; also called ATCC PTA-7449
# Target: T1, 161P2F10B variant 1 (human 161P2F10B), on the cell surface (human, UniProt O14638 1-875)
# T1 construct: Cell surface pyrophosphatase/phosphodiesterase; also called 161P2F10B v.1; CD203c
# Assay: flow cytometry on cells or ELISA on immobilized 161P2F10B
row,binding result,Binder
1,binds,B1
2,binds,B2

# Target: T2, purified recombinant 161P2F10B extracellular domain (Tag5-161P2F10B ECD, amino acids 46-875) (human, UniProt O14638 46-875)
# T2 construct: also called full length ECD
# Assay: SPR (BIAcore), MAb captured on chip, recombinant 161P2F10B injected, 1:1 fit;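 also: purified human MAbs immobilised by capture on a CM5 chip surface, about 150 RU of antibody per cycle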
# From the text: Briefly, each purified human MAb is captured onto a CM5 sensor chip surface. On average approximately 150 RUs of each MAb is captured in every cycle.
Kd [nM],koff [s⁻¹],kon [M⁻¹ s⁻¹],Binder
43,0.0007,16000,B3
4.8,0.000177,36900,B4
5,0.000464,93700,B5
21.7,0.00143,65800,B6
4,0.000186,42400,B7
3.9,0.000509,129000,B8
24,0.00088,36000,B9
7.4,0.000442,59500,B10
3.9,0.000257,66300,B11
8.7,0.00046,52900,B12
28,0.00062,22000,B13
0.76,0.000132,174000,B14
2.3,0.000244,106000,B15
14.5,0.000593,40800,B16
4.3,0.000205,47600,B17
7.2,4.76e-05,6600,B18
1.68,8.4e-05,50000,B19
18,0.00063,35000,B20

# Target: T1, 161P2F10B variant 1 (human 161P2F10B), …
# Assay: FACS titration on KU-812 cells, one site binding fit
# Method: At the end of the incubation, cells were washed and incubated with anti-hIgG-PE detection antibody for 45 min at 4° C. After washing the unbound detection antibodies, the cells were analyzed by FACS. MFI values of each point were obtained using CellQuest Pro software and were used for the affinity calculation using Graphpad Prism software and the one site binding (hyperbola) equation.
row,Kd [nM],Binder
1,0.02,B3
2,0.014,B4
3,0.004,B6
4,0.27,B7
5,0.09,B21
6,0.5,B10
7,0.047,B13
8,1.27,B14
9,0.019,B16
10,0.07,B20
